Assay results as given in publication PMC5934647, “Targeting IS608 transposon integration to highly specific sequences by structure-based transposon engineering”.

Target: T1, IS608 TnpA transposase (Helicobacter pylori (IS608), UniProt Q933Z0 1-155)
T1 sequence: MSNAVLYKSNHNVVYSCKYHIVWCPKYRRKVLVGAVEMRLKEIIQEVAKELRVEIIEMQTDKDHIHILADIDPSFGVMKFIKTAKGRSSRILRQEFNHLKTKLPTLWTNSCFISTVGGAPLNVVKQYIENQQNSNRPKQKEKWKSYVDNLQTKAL
Test: X-ray crystallography (2.6 A); Ca2+; 2 LE29 and 2 T6' per TnpA dimer; pre-cleavage target capture complex; Crystal complex: TnpA:LE29:T6' 1:1:1.3, 20 mM Tris-HCl pH 7.5, 0.2 M NaCl, 0.2 mM TCEP, 2 mM EDTA; crystallized with 14.6% PEG 3350, 0.19 M calcium acetate; cleavage and integration assays are activity read-outs and not listed
Conditions: protein: recombinant; chain copies: 2; LE29 imperfect hairpin; GL of LE29 pairs with TTAC of T6', A+42 and T+43 form base triplets; 2 copies of each strand per TnpA dimer

B1: LE29 hairpin + T6' target oligo (structured_DNA)
DNA 1: AAAGCCCCTAGCTTTTAGCTATGGGGATA
DNA 2: ATTACC
B1: binds.
